Data reported in patent publication US20130171069A1.
Ends that are not written are not given here.

Biological target: synthetic amylospheroid (synthetic ASPD) (UniProt P05067)
Test: SPR; biotinylated peptide on the chip, ASPD as ligand

Row | Kd | kon | Binder
1 | 88.5 nM |  | HLNWLSWFPSRH-biotin [C-terminal biotinylated AAT03 …]
2 | 82.4 nM |  | HLNWWHSWYPAR-biotin [C-terminal biotinylated AAT02 …]
3 | 57.7 nM | 7640 M⁻¹ s⁻¹ | HFNWYNLWRVQY-biotin [C-terminal biotinylated AAT01 …]
